{"source": "the supplement of paper PMC12042874", "note": "± gives the uncertainty stated by the source."}
{"test": "amyloid nucleation score (Sup35N fusion, yeast selection) (log enrichment); library NNK3; higher = more nucleation; inactive = no reads after selection", "in_short": "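Three technical output replicates were used for random libraries. Psi-negative yeast expressing peptides of 20 random codons fused to Sup35N were induced with 100 μM copper sulfate for 24 hours and grown 7 days at 30°C on medium lacking adenine and uracil, and input and output plasmid inserts were Illumina-sequenced, excluding sequences with under 100 input reads. The nucleation score is the DiMSum log enrichment of output over input reads, centred on the mode score of non-aggregating sequences.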"}
{"substance": "SQKFGALVFI", "amyloid nucleation score": "inactive"}
{"substance": "TCLNGLVESRLAGFYHLRGP", "amyloid nucleation score": "inactive"}
{"substance": "FNDNVFIGRYVRTSYCLNLR", "amyloid nucleation score": "1.72 ± 0.064"}
{"substance": "RNWLYLFVRRLISWLNKWGK", "amyloid nucleation score": "inactive"}
{"substance": "AIISWQTLMWLYL", "amyloid nucleation score": "inactive"}
{"substance": "TPSSCSTLCQTDMQDQWRVG", "amyloid nucleation score": "inactive"}
{"substance": "RQEFIGWFSTSALSAQFLS", "amyloid nucleation score": "inactive"}
{"substance": "IFNMSQYNKLECTLTLY", "amyloid nucleation score": "inactive"}
{"substance": "VSKVMSEMIYVGIYICKCCL", "amyloid nucleation score": "1.39 ± 0.11"}
{"substance": "SPFVCHEPLLRVVWSSTCSF", "amyloid nucleation score": "inactive"}
{"substance": "SYSISDDLVTNHVPQNST", "amyloid nucleation score": "inactive"}
{"substance": "CTRNEYIEW", "amyloid nucleation score": "inactive"}
{"substance": "VIIICQLHCYTKTMIIRHRC", "amyloid nucleation score": "0.118 ± 0.3"}
{"substance": "SFYYLVKLYSLSSSIRLFRS", "amyloid nucleation score": "inactive"}
{"substance": "MPWMVATSNM", "amyloid nucleation score": "inactive"}
{"substance": "RGKNVAWWVTSSTKSYSAK", "amyloid nucleation score": "0.304 ± 0.23"}
{"substance": "RIPTLIFRLILIMFHDFDFQ", "amyloid nucleation score": "inactive"}
{"substance": "PFIGVSMLSMG", "amyloid nucleation score": "-0.47 ± 0.87"}
{"substance": "NRMRPIDNLGHISMFGVLGG", "amyloid nucleation score": "inactive"}
{"substance": "DYNDCIKISIFLLYSPLIWC", "amyloid nucleation score": "1.79 ± 0.1"}
{"substance": "AQILSYVVSYSDPERHFSVM", "amyloid nucleation score": "inactive"}
{"substance": "SWDFAYLYELIYFRFMFQGC", "amyloid nucleation score": "inactive"}
{"substance": "VIVASVVLKW", "amyloid nucleation score": "inactive"}
{"substance": "RQIRPMRTLSGTLGAGDRCH", "amyloid nucleation score": "inactive"}
{"substance": "FTYWLFSLDR", "amyloid nucleation score": "inactive"}
{"substance": "SAWHIRVERIGVMYRVHCYD", "amyloid nucleation score": "0.747 ± 0.18"}
{"substance": "TWQFSGYWCSLYMSA", "amyloid nucleation score": "1.67 ± 0.12"}
{"substance": "WVHRIAS", "amyloid nucleation score": "inactive"}
{"substance": "GSICLRQGPSVMVLRMWLCD", "amyloid nucleation score": "inactive"}
{"substance": "SRLWYSPGDYQVFKVRLHIW", "amyloid nucleation score": "inactive"}
{"substance": "LIPQRDNMGGGFRTFSLCYV", "amyloid nucleation score": "inactive"}
{"substance": "LIYVFIIFVMIFWVCCTMRS", "amyloid nucleation score": "0.166 ± 0.42"}
{"substance": "YLLFMYFLLSSCCSLPALPM", "amyloid nucleation score": "1.4 ± 0.12"}
{"substance": "LRVYLLAWL", "amyloid nucleation score": "0.781 ± 0.16"}
{"substance": "VGQWYGFMFWLLLLIIQS", "amyloid nucleation score": "inactive"}
{"substance": "KDLNENGRLFIIDPIIFSMF", "amyloid nucleation score": "inactive"}
{"substance": "NMVYLGDLTITMSTFDAFR", "amyloid nucleation score": "0.53 ± 0.18"}
{"substance": "CPTCESGKERGVKYVKFLNW", "amyloid nucleation score": "inactive"}
{"substance": "LFLRDNF", "amyloid nucleation score": "inactive"}
{"substance": "LHEEGCATVLKVGCALTSEC", "amyloid nucleation score": "inactive"}
{"substance": "ILLKNFGYEHAAKLNTMKMI", "amyloid nucleation score": "inactive"}
{"substance": "VIKDYSQCMSWHGVESSWRL", "amyloid nucleation score": "-0.31 ± 0.68"}
{"substance": "GHSEYLA", "amyloid nucleation score": "inactive"}
{"substance": "WLNYCNCV", "amyloid nucleation score": "1.91 ± 0.078"}
{"substance": "NSLNMRFTLQQTLMGQMNYV", "amyloid nucleation score": "inactive"}
{"substance": "PNNSIHQIICYIWNEYTWSC", "amyloid nucleation score": "2.55 ± 0.059"}
{"substance": "TLLFDPMLNA", "amyloid nucleation score": "inactive"}
{"substance": "FLDFTWMKHGTLALPQAAHQ", "amyloid nucleation score": "inactive"}
{"substance": "LYGLLSCSERVVKLWFWSWV", "amyloid nucleation score": "inactive"}
{"substance": "ELGIII", "amyloid nucleation score": "inactive"}
{"substance": "RFPEAVPNKWSGPPTFNPHE", "amyloid nucleation score": "inactive"}
{"substance": "CSYRRLIFILCD", "amyloid nucleation score": "inactive"}
{"substance": "GHGLGAAYCRIVLKRETLTN", "amyloid nucleation score": "inactive"}
{"substance": "GYLSFIVFMGGRPSLSGNSI", "amyloid nucleation score": "1.42 ± 0.14"}
{"substance": "ICAGLWAD", "amyloid nucleation score": "inactive"}
{"substance": "CFCDVMQFWM", "amyloid nucleation score": "2.4 ± 0.067"}
{"substance": "QSPRDTSPDLRTYCLVA", "amyloid nucleation score": "inactive"}
{"substance": "LGKGICKSTWLQQCRGKSDF", "amyloid nucleation score": "inactive"}
{"substance": "VLLNLSSFMLSTFTLRMS", "amyloid nucleation score": "inactive"}
{"substance": "WVFVRMMVELINMTAAFAVS", "amyloid nucleation score": "inactive"}
{"substance": "ISMSVYFFTIISSQFMFPIR", "amyloid nucleation score": "inactive"}
{"substance": "VGHIRVLDEDNNYMSFYDMR", "amyloid nucleation score": "inactive"}
{"substance": "FLGTVLLGWFIAMMSRCLGR", "amyloid nucleation score": "0.048 ± 0.45"}
{"substance": "RTGSHEMLIICFCVTSVL", "amyloid nucleation score": "inactive"}
{"substance": "LFDALYLEVTLGSSMVYVKN", "amyloid nucleation score": "inactive"}
{"substance": "PGDTQITYTGLSEFWCPGVA", "amyloid nucleation score": "inactive"}
{"substance": "TLNMEFIQFTRSFGKSISPC", "amyloid nucleation score": "inactive"}
{"substance": "FMTSEWRMGMYGVSGRITWE", "amyloid nucleation score": "0.73 ± 0.24"}
{"substance": "NRRFITYFSFRSPEVYKMQY", "amyloid nucleation score": "inactive"}
{"substance": "YGCKANSPLL", "amyloid nucleation score": "inactive"}
{"substance": "LVYKLRGRCYERLYKWRLCD", "amyloid nucleation score": "inactive"}
{"substance": "LGRPYQHVWYIHSEVKGVEY", "amyloid nucleation score": "0.116 ± 0.28"}
{"substance": "YQFFDASLIAR", "amyloid nucleation score": "inactive"}
{"substance": "LSINTQTS", "amyloid nucleation score": "inactive"}
{"substance": "RTSYLVLMKCYSALDYGVIA", "amyloid nucleation score": "inactive"}
{"substance": "LTIAIWVMYKDQYFCLWHLL", "amyloid nucleation score": "inactive"}
{"substance": "RVTGTCGFRRDGFESWRNTR", "amyloid nucleation score": "inactive"}
{"substance": "TISFGMMHLAIDWVIVN", "amyloid nucleation score": "inactive"}
{"substance": "VGTPCSYSWLAAPV", "amyloid nucleation score": "inactive"}
